# Data reported in the RNAGym collection of RNA variant scans (doi:10.1093/molbev/msab373).
# B1: Azoarcus group I ribozyme (parent)
# chain: GUGCCUUGCGCCGGGAAACCACGCAAGGGAUGGUGUCAAAUUCGGCGAAACCUAAGCGCCCGCCCGGGCGUAUGGCAACGCCGAGCCAAGCUUCGGCGCCUGCGCCGAUGAAGGUGUAGAGACUAGACGGCACCCACCUAAGGCAAACGCUAUGGUGAAGGCAUAGUCCAGGGAGUGGCGAAAGUCACACAAACCGG
# Variants of: B1
# Experiment: reverse-splicing fitness (ratio to wild type); higher = more active; in vitro selection; Mg2+ level not given
# In short: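 An in vitro group I ribozyme library with randomized positions was T7-transcribed and gel-purified. In triplicate, 10 pmol RNA in EPPS pH 7.5 was reacted with 50 pmoles of a 30-nt RNA substrate for 1 h at 37 °C across several added MgCl2 levels (1–48 mM), then stopped with EDTA. Products were reverse transcribed from a substrate-complementary primer, PCR-amplified and sequenced (HiSeq 4000). Fitness is a variant's read proportion after selection over that before, normalised to wild type.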
row,Variant,reverse-splicing fitness
1,GUGCCUUGCGCCGGGAAACCACGCAAGGGAUGGUGUCAAAUUCGGCGAAACCUAAGCGCCCGCCCGGGCGUAUGGCAACGCGGAGCCAAGCUUCGGCGCCUGCGCCGAUGAAGGUGUAGAGACUAGACGGCACCCACCUAAGGCUAACGGUAUGGUGAAGGCAUAGUCAAGGGAGUGGCGAAAGUCACACAAACCGG,0.00874
2,GUGCCUUGCGCCGGGAAACCACGCAAGGGAUGGUGUCAAAUUCGGCGAAACCUAAGCGCCCGCCCGGGCGUAUGGCAACGCGGAGCCAAGCUUCGGCGCCUGCGCCGAUGAAGGUGUAGAGACUAGACGGCACCCACCUAAGGCUAACGGUAUGGUGAAGGCAUAGUCGAGGGAGUGGCGAAAGUCACACAAACCGG,0.00774
3,GUGCCUUGCGCCGGGAAACCACGCAAGGGAUGGUGUCAAAUUCGGCGAAACCUAAGCGCCCGCCCGGGCGUAUGGCAACGCGGAGCCAAGCUUCGGCGCCUGCGCCGAUGAAGGUGUAGAGACUAGACGGCACCCACCUAAGGCUAACGGUAUGGUGAAGGCAUAGUCUAGGGAGUGGCGAAAGUCACACAAACCGG,0.0092
4,GUGCCUUGCGCCGGGAAACCACGCAAGGGAUGGUGUCAAAUUCGGCGAAACCUAAGCGCCCGCCCGGGCGUAUGGCAACGCGGAGCCAAGCUUCGGCGCCUGCGCCGAUGAAGGUGUAGAGACUAGACGGCACCCACCUAAGGCUAACGGUAUGGUGAAGGCAUAGUCCAGGGAGAGGCGAAAGUCACACAAACCGG,0.0361
5,GUGCCUUGCGCCGGGAAACCACGCAAGGGAUGGUGUCAAAUUCGGCGAAACCUAAGCGCCCGCCCGGGCGUAUGGCAACGCGGAGCCAAGCUUCGGCGCCUGCGCCGAUGAAGGUGUAGAGACUAGACGGCACCCACCUAAGGCUAACGGUAUGGUGAAGGCAUAGUCCAGGGAGGGGCGAAAGUCACACAAACCGG,0.0103
6,GUGCCUUGCGCCGGGAAACCACGCAAGGGAUGGUGUCAAAUUCGGCGAAACCUAAGCGCCCGCCCGGGCGUAUGGCAACGCGGAGCCAAGCUUCGGCGCCUGCGCCGAUGAAGGUGUAGAGACUAGACGGCACCCACCUAAGGCUAACGGUAUGGUGAAGGCAUAGUCCAGGGAGCGGCGAAAGUCACACAAACCGG,0.0376
7,GUGCCUUGCGCCGGGAAACCACGCAAGGGAUGGUGUCAAAUUCGGCGAAACCUAAGCGCCCGCCCGGGCGUAUGGCAACGCGGAGCCAAGCUUCGGCGCCUGCGCCGAUGAAGGUGUAGAGACUAGACGGCACCCACCUAAGGCUAACGUUAUGGUGAAGGCAUAGUCAAGGGAGCGGCGAAAGUCACACAAACCGG,0.00851
8,GUGCCUUGCGCCGGGAAACCACGCAAGGGAUGGUGUCAAAUUCGGCGAAACCUAAGCGCCCGCCCGGGCGUAUGGCAACGCGGAGCCAAGCUUCGGCGCCUGCGCCGAUGAAGGUGUAGAGACUAGACGGCACCCACCUAAGGCUAACGUUAUGGUGAAGGCAUAGUCAAGGGAGAGGCGAAAGUCACACAAACCGG,0.0114
9,GUGCCUUGCGCCGGGAAACCACGCAAGGGAUGGUGUCAAAUUCGGCGAAACCUAAGCGCCCGCCCGGGCGUAUGGCAACGCGGAGCCAAGCUUCGGCGCCUGCGCCGAUGAAGGUGUAGAGACUAGACGGCACCCACCUAAGGCUAACGUUAUGGUGAAGGCAUAGUCAAGGGAGGGGCGAAAGUCACACAAACCGG,0.00466
10,GUGCCUUGCGCCGGGAAACCACGCAAGGGAUGGUGUCAAAUUCGGCGAAACCUAAGCGCCCGCCCGGGCGUAUGGCAACGCGGAGCCAAGCUUCGGCGCCUGCGCCGAUGAAGGUGUAGAGACUAGACGGCACCCACCUAAGGCUAACGGUAUGGUGAAGGCAUAGUCUAGGGAGAGGCGAAAGUCACACAAACCGG,0.00876
11,GUGCCUUGCGCCGGGAAACCACGCAAGGGAUGGUGUCAAAUUCGGCGAAACCUAAGCGCCCGCCCGGGCGUAUGGCAACGCGGAGCCAAGCUUCGGCGCCUGCGCCGAUGAAGGUGUAGAGACUAGACGGCACCCACCUAAGGCUAACGGUAUGGUGAAGGCAUAGUCUAGGGAGCGGCGAAAGUCACACAAACCGG,0.0119
12,GUGCCUUGCGCCGGGAAACCACGCAAGGGAUGGUGUCAAAUUCGGCGAAACCUAAGCGCCCGCCCGGGCGUAUGGCAACGCGGAGCCAAGCUUCGGCGCCUGCGCCGAUGAAGGUGUAGAGACUAGACGGCACCCACCUAAGGCUAACGGUAUGGUGAAGGCAUAGUCUAGGGAGGGGCGAAAGUCACACAAACCGG,0.0049
13,GUGCCUUGCGCCGGGAAACCACGCAAGGGAUGGUGUCAAAUUCGGCGAAACCUAAGCGCCCGCCCGGGCGUAUGGCAACGCGGAGCCAAGCUUCGGCGCCUGCGCCGAUGAAGGUGUAGAGACUAGACGGCACCCACCUAAGGCUAACGGUAUGGUGAAGGCAUAGUCAAGGGAGAGGCGAAAGUCACACAAACCGG,0.0121
14,GUGCCUUGCGCCGGGAAACCACGCAAGGGAUGGUGUCAAAUUCGGCGAAACCUAAGCGCCCGCCCGGGCGUAUGGCAACGCGGAGCCAAGCUUCGGCGCCUGCGCCGAUGAAGGUGUAGAGACUAGACGGCACCCACCUAAGGCUAACGGUAUGGUGAAGGCAUAGUCAAGGGAGCGGCGAAAGUCACACAAACCGG,0.0105
15,GUGCCUUGCGCCGGGAAACCACGCAAGGGAUGGUGUCAAAUUCGGCGAAACCUAAGCGCCCGCCCGGGCGUAUGGCAACGCGGAGCCAAGCUUCGGCGCCUGCGCCGAUGAAGGUGUAGAGACUAGACGGCACCCACCUAAGGCUAACGGUAUGGUGAAGGCAUAGUCAAGGGAGGGGCGAAAGUCACACAAACCGG,0.00553
16,GUGCCUUGCGCCGGGAAACCACGCAAGGGAUGGUGUCAAAUUCGGCGAAACCUAAGCGCCCGCCCGGGCGUAUGGCAACGCGGAGCCAAGCUUCGGCGCCUGCGCCGAUGAAGGUGUAGAGACUAGACGGCACCCACCUAAGGCUAACGUUAUGGUGAAGGCAUAGUCUAGGGAGCGGCGAAAGUCACACAAACCGG,0.0121
17,GUGCCUUGCGCCGGGAAACCACGCAAGGGAUGGUGUCAAAUUCGGCGAAACCUAAGCGCCCGCCCGGGCGUAUGGCAACGCGGAGCCAAGCUUCGGCGCCUGCGCCGAUGAAGGUGUAGAGACUAGACGGCACCCACCUAAGGCUAACGUUAUGGUGAAGGCAUAGUCUAGGGAGAGGCGAAAGUCACACAAACCGG,0.0118
18,GUGCCUUGCGCCGGGAAACCACGCAAGGGAUGGUGUCAAAUUCGGCGAAACCUAAGCGCCCGCCCGGGCGUAUGGCAACGCGGAGCCAAGCUUCGGCGCCUGCGCCGAUGAAGGUGUAGAGACUAGACGGCACCCACCUAAGGCUAACGUUAUGGUGAAGGCAUAGUCUAGGGAGGGGCGAAAGUCACACAAACCGG,0.00492
19,GUGCCUUGCGCCGGGAAACCACGCAAGGGAUGGUGUCAAAUUCGGCGAAACCUAAGCGCCCGCCCGGGCGUAUGGCAACGCGGAGCCAAGCUUCGGCGCCUGCGCCGAUGAAGGUGUAGAGACUAGACGGCACCCACCUAAGGCUAACGUUAUGGUGAAGGCAUAGUCCAGGGAGAGGCGAAAGUCACACAAACCGG,0.236
20,GUGCCUUGCGCCGGGAAACCACGCAAGGGAUGGUGUCAAAUUCGGCGAAACCUAAGCGCCCGCCCGGGCGUAUGGCAACGCGGAGCCAAGCUUCGGCGCCUGCGCCGAUGAAGGUGUAGAGACUAGACGGCACCCACCUAAGGCUAACGUUAUGGUGAAGGCAUAGUCCAGGGAGCGGCGAAAGUCACACAAACCGG,0.234
21,GUGCCUUGCGCCGGGAAACCACGCAAGGGAUGGUGUCAAAUUCGGCGAAACCUAAGCGCCCGCCCGGGCGUAUGGCAACGCGGAGCCAAGCUUCGGCGCCUGCGCCGAUGAAGGUGUAGAGACUAGACGGCACCCACCUAAGGCUAACGUUAUGGUGAAGGCAUAGUCGAGGGAGAGGCGAAAGUCACACAAACCGG,0.0117
22,GUGCCUUGCGCCGGGAAACCACGCAAGGGAUGGUGUCAAAUUCGGCGAAACCUAAGCGCCCGCCCGGGCGUAUGGCAACGCGGAGCCAAGCUUCGGCGCCUGCGCCGAUGAAGGUGUAGAGACUAGACGGCACCCACCUAAGGCUAACGUUAUGGUGAAGGCAUAGUCGAGGGAGCGGCGAAAGUCACACAAACCGG,0.0131
23,GUGCCUUGCGCCGGGAAACCACGCAAGGGAUGGUGUCAAAUUCGGCGAAACCUAAGCGCCCGCCCGGGCGUAUGGCAACGCGGAGCCAAGCUUCGGCGCCUGCGCCGAUGAAGGUGUAGAGACUAGACGGCACCCACCUAAGGCUAACGUUAUGGUGAAGGCAUAGUCGAGGGAGGGGCGAAAGUCACACAAACCGG,0.00545
24,GUGCCUUGCGCCGGGAAACCACGCAAGGGAUGGUGUCAAAUUCGGCGAAACCUAAGCGCCCGCCCGGGCGUAUGGCAACGCGGAGCCAAGCUUCGGCGCCUGCGCCGAUGAAGGUGUAGAGACUAGACGGCACCCACCUAAGGCUAACGUUAUGGUGAAGGCAUAGUCCAGGGAGUGGCGAAAGUCACACAAACCGG,0.321
25,GUGCCUUGCGCCGGGAAACCACGCAAGGGAUGGUGUCAAAUUCGGCGAAACCUAAGCGCCCGCCCGGGCGUAUGGCAACGCGGAGCCAAGCUUCGGCGCCUGCGCCGAUGAAGGUGUAGAGACUAGACGGCACCCACCUAAGGCUAACGGUAUGGUGAAGGCAUAGUCGAGGGAGCGGCGAAAGUCACACAAACCGG,0.00645
26,GUGCCUUGCGCCGGGAAACCACGCAAGGGAUGGUGUCAAAUUCGGCGAAACCUAAGCGCCCGCCCGGGCGUAUGGCAACGCGGAGCCAAGCUUCGGCGCCUGCGCCGAUGAAGGUGUAGAGACUAGACGGCACCCACCUAAGGCUAACGGUAUGGUGAAGGCAUAGUCGAGGGAGAGGCGAAAGUCACACAAACCGG,0.00882
27,GUGCCUUGCGCCGGGAAACCACGCAAGGGAUGGUGUCAAAUUCGGCGAAACCUAAGCGCCCGCCCGGGCGUAUGGCAACGCGGAGCCAAGCUUCGGCGCCUGCGCCGAUGAAGGUGUAGAGACUAGACGGCACCCACCUAAGGCUAACGGUAUGGUGAAGGCAUAGUCGAGGGAGGGGCGAAAGUCACACAAACCGG,0.00508
28,GUGCCUUGCGCCGGGAAACCACGCAAGGGAUGGUGUCAAAUUCGGCGAAACCUAAGCGCCCGCCCGGGCGUAUGGCAACGCGGAGCCAAGCUUCGGCGCCUGCGCCGAUGAAGGUGUAGAGACUAGACGGCACCCACCUAAGGCUAACGUUAUGGUGAAGGCAUAGUCUAGGGAGUGGCGAAAGUCACACAAACCGG,0.0123
29,GUGCCUUGCGCCGGGAAACCACGCAAGGGAUGGUGUCAAAUUCGGCGAAACCUAAGCGCCCGCCCGGGCGUAUGGCAACGCGGAGCCAAGCUUCGGCGCCUGCGCCGAUGAAGGUGUAGAGACUAGACGGCACCCACCUAAGGCUAACGUUAUGGUGAAGGCAUAGUCAAGGGAGUGGCGAAAGUCACACAAACCGG,0.00964
30,GUGCCUUGCGCCGGGAAACCACGCAAGGGAUGGUGUCAAAUUCGGCGAAACCUAAGCGCCCGCCCGGGCGUAUGGCAACGCGGAGCCAAGCUUCGGCGCCUGCGCCGAUGAAGGUGUAGAGACUAGACGGCACCCACCUAAGGCUAACGUUAUGGUGAAGGCAUAGUCGAGGGAGUGGCGAAAGUCACACAAACCGG,0.0103
